# Laboratory results reported in patent publication US20250002577A1 (ONCORESPONSE, published 2025).
# Columns and labels:
# [1] = target: T1, human LILRB2 on cells (human, UniProt Q8N423 22-597); assay: flow cytometry, LILRB2-HEK293T cells, AF647-labelled antibody
# T1 construct: whole, on cells; also called hLILRB2; LILRB2-HEK293T
# Protocol: (§1) While LILRB2 expression is mostly restricted to myeloid cells, LILRB1 has a broader expression on immune cell subsets, including B cells, T cells and NK cells.
# (§2) Frozen cells were removed from storage in vapor phase liquid nitrogen and thawed by gentle swirling in a water bath at 37° C., then resuspended in DMEM media with 10% FBS. Cells were placed in a 15 mL conical tube and centrifuged at 300×g for 5 min, then supernatant was removed. Cells were resuspended in DMEM+10% FBS at a cell density of 2×10⁵ cells/mL in a T75 flask for culturing, and incubated at 37° C., 5% CO₂ for 3 days before passaging. Cells were passaged when the cell density reached 1×10⁶ cell/mL. On the day of the assay, cells were centrifuged, then supernatant was removed. Cells were resuspended in Blocking Buffer B (FACS Buffer containing 10% FBS and 0.5 mg/mL human IgG1 (Athens Research, No. 16-16-090707-1M)+0.05% NaN₃, 5% (w/v)) in a 15 mL conical tube, then incubated at 4° C. for 30 min. […] Cells were incubated with antibodies at 4° C. for 1 h. Cells were washed twice in FACS Buffer (PBS containing 2 mM EDTA+1% FBS+0.05% NaN₃) and then stained with for 10 min with Zombie Violet™ fixable viability dye (BioLegend, No. 423114) at RT, washed with FACS Buffer and resuspend in 75 μL of FACS Buffer for acquisition on a BD FACSymphony™ or BD FACSCanto™ II flow cytometer (BD Biosciences), as described in Example 6.
# [2] = target: T2, human LILRB1 on cells (human, UniProt Q8NHL6 24-650); assay: flow cytometry, 721.221 cells, AF647-labelled antibody
# T2 construct: whole, on cells; also called hLILRB1; LILRB1-expressing 721.221 cells
# Protocol: as §1, §2
# [3] = target: T3, recombinant cynomolgus LILRB1 (cynomolgus); assay: MSD ELISA, coated antigen, purified IgG1
# T3 construct: Bought protein
# Protocol: (§3) Recombinant human and cynomolgus LILRB1 proteins (R&D Systems, No. 8989-T2-050; ACROBiosystems, No. CDJ-C52H3) and recombinant human and cynomolgus LILRB2 proteins (ACROBiosystems, No. LI2-H5220; No. L12-C52H3) were diluted in PBS to 4 μg/mL and added to a multi-array 384-well high-binding plates (MSD, No. L21XA4) at 10 μL/well and incubated at 4° C. overnight. The plates were washed several times with Wash Buffer (0.05% Tween® 20 in PBS), using a microplate washer and then blocked with 70 μL/well of 5% BSA in PBS for 1 hour (h) at room temperature (RT) with shaking at 700 rpm. After blocking, 20 μL/well of anti-LILRB2/LILRB1 antibodies or isotype control were added to the plates, and the plates were sealed and incubated for 2 h at RT with shaking at 700 rpm. After primary antibody binding, plates were washed five times with 70 μL/well of Wash Buffer (0.05% Tween® 20 in PBS) using a microplate washer. Secondary detection antibody (SULFO-TAG™-labeled goat anti-human IgG antibody (MSD, No. R32AJ-1)) was diluted to 4 μg/mL in assay diluent (1% BSA in PBS) and 10 μL/well was added to plates and incubated at RT protected from light for 1 h, with shaking at 700 rpm. Following incubation, plates were washed five times with Wash Buffer, using a microplate washer. After removal of the final wash, 35 μL/well of MSD Gold Read Buffer B (MSD, No. R60AM-4) was added to all wells using a Multidrop combo washer/dispenser, and plates were read using MESO Sector 600MM instrument (MSD) within 5 minutes (min) after addition of Read Buffer. Signals as counts per minute (cpm) were recorded. EC₅₀ values were calculated using GraphPad Prism based on log concentration of the primary antibodies versus cpm values.
# [4] = target: T4, recombinant human LILRB2-His (human, UniProt Q8N423 22-461, limits assumed); assay: MSD ELISA, coated antigen, purified IgG1
# T4 construct: Bought protein; also called LILRB2 protein
# Protocol: as §3
# [5] = target: T5, recombinant human LILRB1-His (human, UniProt Q8NHL6 24-458); assay: MSD ELISA, coated antigen, purified IgG1
# T5 construct: Bought protein; also called LILRB1 protein
# Protocol: as §3
# [6] = target: T6, human LILRA2 on HEK293-6E cells (human, UniProt Q8N149 24-483); assay: flow cytometry, HEK293-6E transfectants
# T6 construct: whole, on cells; also called hLILRA2
# Protocol: (§4) To determine that the parent chimera anti LILRB2/1 antibody specifically binds to LILRB2 and LILRB1 and not to other LILRB and LILRA family members, a cross-reactivity assay was performed. Cross-reactivity was assessed by antibody binding to transiently transfected HEK293-6E cells by flow cytometry. Binding was evaluated to HEK293-6E cells transiently transfected with human LILRB-1, -2, -3, -4, and 5 plasmids (Origene, Nos. RC219949, RC217935, RC211228, RC220932, RC206516) or to cells transiently transfected with human LILRA-1, -2, -4, -5, and -6 plasmids (Origene, Nos. RC210808, RC205626, RC220452, RC212310 RC212965). […] At a concentration of 1 μg/mL, no binding of B21A1 or the humanized variants to LILRB-3, -4, or -5 was observed (Table 7). Additionally, no binding to LILRA-1, -2, -4, -5, or -6 was observed, confirming the specificity of B21A1 and its humanized variants to LILRB1 and LILRB2 (Table 8).
# [7] = target: T7, human LILRA1 on HEK293-6E cells (human, UniProt O75019 17-489); assay: flow cytometry, HEK293-6E transfectants
# T7 construct: whole, on cells; also called hLILRA1
# Protocol: as §4
# [8] = target: T8, human LILRA5 on HEK293-6E cells (human, UniProt A6NI73 42-299); assay: flow cytometry, HEK293-6E transfectants
# T8 construct: whole, on cells; also called hLILRA5
# Protocol: as §4
# [9] = target: T2, human LILRB1 on cells; assay: flow cytometry, HEK293-6E transfectants
# Protocol: as §4
# [10] = target: T9, human LILRA6 on HEK293-6E cells (human, UniProt Q6PI73 24-481); assay: flow cytometry, HEK293-6E transfectants
# T9 construct: whole, on cells; also called hLILRA6
# Protocol: as §4
# [11] = target: T10, human LILRB4 on HEK293-6E cells (human, UniProt Q8NHJ6 22-448); assay: flow cytometry, HEK293-6E transfectants
# T10 construct: whole, on cells; also called hLILRB4
# Protocol: as §4
# [12] = target: T11, human LILRB5 on HEK293-6E cells (human, UniProt O75023 24-590); assay: flow cytometry, HEK293-6E transfectants
# T11 construct: whole, on cells; also called hLILRB5
# Protocol: as §4
# [13] = target: T12, human LILRA4 on HEK293-6E cells (human, UniProt P59901 24-499); assay: flow cytometry, HEK293-6E transfectants
# T12 construct: whole, on cells; also called hLILRA4
# Protocol: as §4
# [14] = target: T13, human LILRB3 on HEK293-6E cells (human, UniProt O75022 24-631); assay: flow cytometry, HEK293-6E transfectants
# T13 construct: whole, on cells; also called hLILRB3
# Protocol: as §4
# [15] = target: T1, human LILRB2 on cells; assay: flow cytometry, HEK293-6E transfectants
# Protocol: as §4
# T2 sequence (Q8NHL6 24-650): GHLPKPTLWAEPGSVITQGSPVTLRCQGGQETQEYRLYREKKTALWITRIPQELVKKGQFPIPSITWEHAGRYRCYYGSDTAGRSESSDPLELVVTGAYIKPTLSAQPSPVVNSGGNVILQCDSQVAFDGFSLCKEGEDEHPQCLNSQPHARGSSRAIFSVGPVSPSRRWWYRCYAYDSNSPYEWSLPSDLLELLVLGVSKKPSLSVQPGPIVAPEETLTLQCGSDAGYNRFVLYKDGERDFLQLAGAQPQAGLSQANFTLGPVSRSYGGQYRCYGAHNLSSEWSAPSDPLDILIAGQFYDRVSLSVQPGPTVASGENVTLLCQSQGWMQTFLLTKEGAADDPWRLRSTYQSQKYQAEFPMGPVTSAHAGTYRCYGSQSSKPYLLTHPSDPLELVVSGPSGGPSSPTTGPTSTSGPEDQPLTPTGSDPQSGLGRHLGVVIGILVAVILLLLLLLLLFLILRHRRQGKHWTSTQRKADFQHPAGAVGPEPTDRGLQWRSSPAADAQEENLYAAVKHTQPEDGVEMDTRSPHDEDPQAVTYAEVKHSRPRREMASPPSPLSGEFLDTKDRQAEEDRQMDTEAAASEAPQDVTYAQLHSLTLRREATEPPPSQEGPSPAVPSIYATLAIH
# T11 sequence (O75023 24-590): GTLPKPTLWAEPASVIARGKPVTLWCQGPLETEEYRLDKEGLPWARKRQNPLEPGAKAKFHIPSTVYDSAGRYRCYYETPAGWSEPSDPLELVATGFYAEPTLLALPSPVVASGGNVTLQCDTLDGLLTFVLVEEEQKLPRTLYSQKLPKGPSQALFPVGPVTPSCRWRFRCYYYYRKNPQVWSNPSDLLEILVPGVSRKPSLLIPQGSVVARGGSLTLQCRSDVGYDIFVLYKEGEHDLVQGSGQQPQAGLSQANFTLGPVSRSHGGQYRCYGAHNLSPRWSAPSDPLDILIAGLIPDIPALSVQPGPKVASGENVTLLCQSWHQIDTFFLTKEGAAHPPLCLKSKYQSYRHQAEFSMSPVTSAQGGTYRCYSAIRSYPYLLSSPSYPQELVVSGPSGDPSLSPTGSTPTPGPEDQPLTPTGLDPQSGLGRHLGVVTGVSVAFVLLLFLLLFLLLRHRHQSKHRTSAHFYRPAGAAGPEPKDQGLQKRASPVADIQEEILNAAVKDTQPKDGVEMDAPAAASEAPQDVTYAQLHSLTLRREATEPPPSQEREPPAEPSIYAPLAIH
# T8 sequence (A6NI73 42-299): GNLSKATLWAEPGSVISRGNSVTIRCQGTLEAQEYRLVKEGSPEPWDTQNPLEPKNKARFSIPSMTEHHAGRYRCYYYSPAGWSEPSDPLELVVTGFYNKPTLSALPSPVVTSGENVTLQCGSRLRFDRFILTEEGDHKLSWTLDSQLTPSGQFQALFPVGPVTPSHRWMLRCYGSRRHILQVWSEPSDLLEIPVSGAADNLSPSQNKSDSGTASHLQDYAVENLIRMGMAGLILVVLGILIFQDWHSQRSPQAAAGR
# T13 sequence (O75022 24-631): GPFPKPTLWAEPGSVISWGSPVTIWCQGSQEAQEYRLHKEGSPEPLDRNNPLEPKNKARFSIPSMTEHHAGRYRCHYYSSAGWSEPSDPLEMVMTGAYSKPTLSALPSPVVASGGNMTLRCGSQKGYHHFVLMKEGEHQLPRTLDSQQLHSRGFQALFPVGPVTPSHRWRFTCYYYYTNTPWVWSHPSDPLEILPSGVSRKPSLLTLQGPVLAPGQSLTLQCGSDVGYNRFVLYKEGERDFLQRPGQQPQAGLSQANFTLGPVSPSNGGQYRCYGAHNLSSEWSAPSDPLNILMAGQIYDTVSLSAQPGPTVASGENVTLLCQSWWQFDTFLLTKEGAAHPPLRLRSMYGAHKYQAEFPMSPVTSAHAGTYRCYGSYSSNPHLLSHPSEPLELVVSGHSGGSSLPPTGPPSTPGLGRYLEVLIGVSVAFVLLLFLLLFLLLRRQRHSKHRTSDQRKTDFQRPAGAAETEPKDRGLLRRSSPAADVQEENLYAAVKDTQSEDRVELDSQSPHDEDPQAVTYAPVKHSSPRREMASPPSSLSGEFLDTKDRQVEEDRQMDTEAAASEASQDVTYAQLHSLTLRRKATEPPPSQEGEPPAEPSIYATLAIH
# T5 sequence (Q8NHL6 24-458 limits assumed): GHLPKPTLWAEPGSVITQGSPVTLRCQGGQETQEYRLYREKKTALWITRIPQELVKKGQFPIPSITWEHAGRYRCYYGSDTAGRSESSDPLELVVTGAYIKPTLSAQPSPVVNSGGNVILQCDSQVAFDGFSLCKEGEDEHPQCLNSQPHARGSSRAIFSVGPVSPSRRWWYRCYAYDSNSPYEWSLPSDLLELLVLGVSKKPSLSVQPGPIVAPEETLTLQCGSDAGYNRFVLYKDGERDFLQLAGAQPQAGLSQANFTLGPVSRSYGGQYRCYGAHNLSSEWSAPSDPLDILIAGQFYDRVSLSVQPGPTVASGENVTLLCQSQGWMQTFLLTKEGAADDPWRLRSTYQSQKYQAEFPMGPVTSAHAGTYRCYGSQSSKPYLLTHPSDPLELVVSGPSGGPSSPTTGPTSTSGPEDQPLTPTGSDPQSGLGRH
# T1 sequence (Q8N423 22-597): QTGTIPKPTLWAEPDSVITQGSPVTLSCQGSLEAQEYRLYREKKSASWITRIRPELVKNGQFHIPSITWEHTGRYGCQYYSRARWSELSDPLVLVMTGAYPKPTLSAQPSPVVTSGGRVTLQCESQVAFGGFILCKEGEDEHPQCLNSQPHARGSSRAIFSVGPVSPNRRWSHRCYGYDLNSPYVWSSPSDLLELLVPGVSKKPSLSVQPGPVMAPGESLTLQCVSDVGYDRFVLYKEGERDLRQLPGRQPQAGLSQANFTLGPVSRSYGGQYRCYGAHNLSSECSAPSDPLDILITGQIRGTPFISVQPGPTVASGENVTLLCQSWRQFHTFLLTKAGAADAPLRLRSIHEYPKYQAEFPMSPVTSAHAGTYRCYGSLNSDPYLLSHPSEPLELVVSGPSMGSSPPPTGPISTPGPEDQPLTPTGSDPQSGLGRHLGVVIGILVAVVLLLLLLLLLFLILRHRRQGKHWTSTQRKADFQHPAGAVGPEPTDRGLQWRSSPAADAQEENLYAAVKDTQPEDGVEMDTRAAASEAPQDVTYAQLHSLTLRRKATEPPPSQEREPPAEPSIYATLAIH
# T4 sequence (Q8N423 22-461 limits assumed): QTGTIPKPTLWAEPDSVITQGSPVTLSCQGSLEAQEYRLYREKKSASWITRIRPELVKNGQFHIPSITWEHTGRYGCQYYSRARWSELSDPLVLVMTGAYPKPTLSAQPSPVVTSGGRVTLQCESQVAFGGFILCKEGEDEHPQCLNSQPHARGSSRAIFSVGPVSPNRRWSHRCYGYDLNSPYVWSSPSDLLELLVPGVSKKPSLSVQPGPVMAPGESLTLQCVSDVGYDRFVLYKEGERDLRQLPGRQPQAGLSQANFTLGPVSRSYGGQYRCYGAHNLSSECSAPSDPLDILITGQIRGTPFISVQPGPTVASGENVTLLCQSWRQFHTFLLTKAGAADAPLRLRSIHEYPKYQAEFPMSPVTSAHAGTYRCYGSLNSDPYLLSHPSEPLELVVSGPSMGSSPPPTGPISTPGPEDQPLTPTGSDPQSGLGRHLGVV
# T7 sequence (O75019 17-489): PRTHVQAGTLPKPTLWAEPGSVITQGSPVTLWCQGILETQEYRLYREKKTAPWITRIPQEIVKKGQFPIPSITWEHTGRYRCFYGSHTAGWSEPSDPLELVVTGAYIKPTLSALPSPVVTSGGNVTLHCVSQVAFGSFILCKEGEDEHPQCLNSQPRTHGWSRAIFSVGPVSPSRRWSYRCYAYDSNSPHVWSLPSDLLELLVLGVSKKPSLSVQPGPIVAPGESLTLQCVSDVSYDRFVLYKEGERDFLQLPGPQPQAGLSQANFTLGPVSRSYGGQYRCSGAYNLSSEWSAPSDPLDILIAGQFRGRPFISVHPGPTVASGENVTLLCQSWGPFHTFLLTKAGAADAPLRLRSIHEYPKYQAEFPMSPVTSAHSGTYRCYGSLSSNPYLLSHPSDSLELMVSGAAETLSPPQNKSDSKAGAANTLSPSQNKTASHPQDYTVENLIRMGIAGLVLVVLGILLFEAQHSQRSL
# T9 sequence (Q6PI73 24-481): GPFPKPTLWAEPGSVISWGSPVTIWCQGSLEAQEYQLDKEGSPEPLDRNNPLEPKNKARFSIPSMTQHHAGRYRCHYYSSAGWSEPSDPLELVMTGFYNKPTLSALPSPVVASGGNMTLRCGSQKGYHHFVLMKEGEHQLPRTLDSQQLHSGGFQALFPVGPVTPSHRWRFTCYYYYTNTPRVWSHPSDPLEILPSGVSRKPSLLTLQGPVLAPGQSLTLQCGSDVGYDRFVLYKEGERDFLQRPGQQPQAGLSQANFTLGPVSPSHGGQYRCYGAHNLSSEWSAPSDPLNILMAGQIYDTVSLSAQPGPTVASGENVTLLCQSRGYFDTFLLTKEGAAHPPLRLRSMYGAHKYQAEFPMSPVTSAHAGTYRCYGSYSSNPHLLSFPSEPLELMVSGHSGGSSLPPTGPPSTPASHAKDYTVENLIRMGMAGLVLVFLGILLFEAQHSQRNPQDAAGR
# T12 sequence (P59901 24-499): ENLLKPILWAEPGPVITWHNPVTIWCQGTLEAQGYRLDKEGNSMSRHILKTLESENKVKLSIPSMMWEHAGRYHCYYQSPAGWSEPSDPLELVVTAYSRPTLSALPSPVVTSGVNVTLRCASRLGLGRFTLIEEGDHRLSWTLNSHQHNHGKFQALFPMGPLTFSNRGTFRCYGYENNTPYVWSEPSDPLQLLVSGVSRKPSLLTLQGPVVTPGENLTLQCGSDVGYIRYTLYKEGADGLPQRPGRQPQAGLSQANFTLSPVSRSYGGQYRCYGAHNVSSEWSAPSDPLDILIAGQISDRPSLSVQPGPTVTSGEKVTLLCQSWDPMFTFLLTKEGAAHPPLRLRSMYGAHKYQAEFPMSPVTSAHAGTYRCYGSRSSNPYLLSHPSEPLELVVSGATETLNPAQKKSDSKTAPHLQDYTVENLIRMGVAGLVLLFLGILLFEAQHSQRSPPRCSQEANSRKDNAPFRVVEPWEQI
EC50 [1],EC50 [2],EC50 [3],EC50 [4],EC50 [5],MFI [6],binding result [6],MFI [7],binding result [7],MFI [8],binding result [8],MFI [9],MFI [10],binding result [10],MFI [11],binding result [11],MFI [12],binding result [12],MFI [13],binding result [13],Binder,other results
0.9 ng/mL,0.0782 µg/mL,0.377 µg/mL,0.0318 µg/mL,9.5 ng/mL,27.4 MFI,no binding (tested: 1 µg/mL),280 MFI,no binding (tested: 1 µg/mL),78.2 MFI,no binding (tested: 1 µg/mL),990 MFI,148 MFI,no binding (tested: 1 µg/mL),32.4 MFI,no binding (tested: 1 µg/mL),90.6 MFI,no binding (tested: 1 µg/mL),138 MFI,no binding (tested: 1 µg/mL),"B21H1-25 (antibody, human IgG1, kappa, humanized IgG1/kappa, VH2+VL5) heavy: not shown light: DIQMTQTPSTVEASVGGTVTITCQASGNIYSFLAWYQQKPGQPPKLLIYTASNLETGVPSRFSGSGSGTEYTLTISGLQSDDAATYYCLGGLYSSDVSYAFGGGTEVVVKRTVAAPSVFIFPPSDEQLKSGTASVVCLLNNFYPREAKVQWKVDNALQSGNSQESVTEQDSKDSTYSLSSTLTLSKADYEKHKVYACEVTHQGLSSPVTKSFNRGEC",MFI [14]: 93.9 MFI; binding result [14]: no binding (tested: 1 µg/mL); MFI [15]: 5320 MFI
1.42 ng/mL,0.0595 µg/mL,0.286 µg/mL,0.0287 µg/mL,8.64 ng/mL,25.6 MFI,no binding (tested: 1 µg/mL),246 MFI,no binding (tested: 1 µg/mL),74.5 MFI,no binding (tested: 1 µg/mL),985 MFI,141 MFI,no binding (tested: 1 µg/mL),28.6 MFI,no binding (tested: 1 µg/mL),87 MFI,no binding (tested: 1 µg/mL),125 MFI,no binding (tested: 1 µg/mL),"B21H1-24 (antibody, human IgG1, kappa, humanized IgG1/kappa, VH2+VL4) heavy: not shown light: DVVMTQSPSTVSASVGDRVTLTCQASGNIYSFLAWYQQKPGQPPKLLIYTASNLETGVPDRFSGSGSGTDYTLTISSLQADDFATYYCLGGLYSSDVSYAFGQGTKVEIKRTVAAPSVFIFPPSDEQLKSGTASVVCLLNNFYPREAKVQWKVDNALQSGNSQESVTEQDSKDSTYSLSSTLTLSKADYEKHKVYACEVTHQGLSSPVTKSFNRGEC",MFI [14]: 86.2 MFI; binding result [14]: no binding (tested: 1 µg/mL); MFI [15]: 6050 MFI
1.35 ng/mL,0.0515 µg/mL,1.51 µg/mL,0.0248 µg/mL,7.34 ng/mL,25.2 MFI,no binding (tested: 1 µg/mL),220 MFI,no binding (tested: 1 µg/mL),71.8 MFI,no binding (tested: 1 µg/mL),1120 MFI,141 MFI,no binding (tested: 1 µg/mL),26.5 MFI,no binding (tested: 1 µg/mL),85.5 MFI,no binding (tested: 1 µg/mL),114 MFI,no binding (tested: 1 µg/mL),"B21H1-43 (antibody, human IgG1, kappa, humanized IgG1/kappa, VH4+VL3) heavy: not shown light: DIVMTQSPSSVSASVGDRVTITCQASGNIYSFLAWYQQKPGKAPKLLIYTASNLETGVPSRFSGSGSGTDFTLTISSLQPEDFATYYCLGGLYSSDVSYAFGGGTKVVIKRTVAAPSVFIFPPSDEQLKSGTASVVCLLNNFYPREAKVQWKVDNALQSGNSQESVTEQDSKDSTYSLSSTLTLSKADYEKHKVYACEVTHQGLSSPVTKSFNRGEC",MFI [14]: 79.2 MFI; binding result [14]: no binding (tested: 1 µg/mL); MFI [15]: 6370 MFI
1.07 ng/mL,0.203 µg/mL,4.4 µg/mL,0.0306 µg/mL,7.34 ng/mL,27.8 MFI,no binding (tested: 1 µg/mL),244 MFI,no binding (tested: 1 µg/mL),76 MFI,no binding (tested: 1 µg/mL),1000 MFI,152 MFI,no binding (tested: 1 µg/mL),32.4 MFI,no binding (tested: 1 µg/mL),93.4 MFI,no binding (tested: 1 µg/mL),140 MFI,no binding (tested: 1 µg/mL),"B21H1-11 (antibody, human IgG1, kappa, humanized IgG1/kappa, VH1+VL1) heavy: not shown light: DIQMTQSPSTLSASVGDRVTITCQASGNIYSFLAWYQQKPGKAPKLLIYTASNLETGVPSRFSGSGSGTEYTLTISSLQPDDFATYYCLGGLYSSDVSYAFGPGTKVEIKRTVAAPSVFIFPPSDEQLKSGTASVVCLLNNFYPREAKVQWKVDNALQSGNSQESVTEQDSKDSTYSLSSTLTLSKADYEKHKVYACEVTHQGLSSPVTKSFNRGEC",MFI [14]: 102 MFI; binding result [14]: no binding (tested: 1 µg/mL); MFI [15]: 5090 MFI
